According to US20220259284A1, “CA2 COMPOSITIONS AND METHODS FOR TUNABLE REGULATION” (Obsidian Therapeutics, Inc., priority 2019, published 2022):

Legend:
[1] = system: CD40L constructs regulated by Carbonic anhydrase DDs in T cells; test: Acetazolamide dose response of CD40L expression in transduced T cells, FACS (MFI, % CD40L positive); format: cell-based, human; conditions: for CD40L MFI / Percentage CD40L positive cells: 24 hours; for CD40L MFI: FACS
Method: (§1) CD40L constructs regulated by Carbonic anhydrase DDs were generated and cloned into lentiviral vectors. Purified T cells were thawed and cultured with aCD3 aCD28 Dynabeads (in the ratio of 3 beads to 1 T cell).
The constructs were transduced in T cells the next day. […] 24 hours after the addition of ligand T cells were stained for CD40L expression and analyzed using FACS.

[2] = system: monocyte derived dendritic cells (DCs), Nalm6; test: IFNg and IL-12 in supernatant of DC + Nalm6 + CAR+ T cell co-culture, MSD; format: cell-based; conditions: DC + T cells + Nalm6, no ligand stated, supernatant 24 hours
Method: To measure the effect of CD40L expression that is tuned by the biocircuits of the present disclosure in the context of CARs, T cells expressing any of the CA2 CD40L-CAR constructs described herein were co-cultured with monocyte derived dendritic cells (DCs).
In vitro cultures were set up by adding 1×10^4 DCs into culture with 1×10^5 Nalm6 and 1×10^5 CAR+ T cells. […] Supernatants were collected 24 hours later and analyzed for IFNg and IL-12 by MSD assay. OT-001661 (SEQ ID NO. 6067; encoded by SEQ ID NO. 6068), that expressed CD40L payloads constitutively was used as control.

[3] = system: CA2 regulated CD40L in activated T cells; test: Regulation of CD40L in T cells by CA2, percent of cells expressing CD40L (surface expression); format: cell-based, human; conditions: ligand N/A
Method: To test regulation, activated T cells were lentivirally transduced with CA2 regulated CD40L (OT-001990) and a control of CD40L (OT-001661). Two days later, cells were treated with vehicle or […] ligand for 24h as described in Table 14 after which they were analyzed for CD40L surface expression. In the table, “Acz” is Acetazolamide.

[4] = system: CD40L constructs regulated by Carbonic anhydrase DDs in T cells; test: Time course regulation of CD40L in transduced T cells, FACS (MFI, % CD40L positive); format: cell-based, human; conditions: constitutive CD40L
Method: as §1
A control of empty vector (EV) and constitutive CD40L (OT-001661; amino acid SEQ ID NO. 6067 and nucleic acid SEQ ID NO. 6068) was also evaluated. Cells were fixed at 2, 4, 6, 8, 24, and 48 hours and then T cells were stained for CD40L expression and analyzed using FACS. The results are shown as median fluorescence intensity in Table 12 and as percentage CD40L positive cells in Table 13.

CD40L in HEK293T cells = test: Soluble CD40L (shedding) in medium of transfected HEK293T cells, ELISA; format: cell-based, human; conditions: HEK293T cell culture medium, no ligand stated, Repeat 1
[5] = system: CA2 regulated CD40L in activated T cells; test: Regulation of CD40L in T cells by CA2, percent of cells expressing CD40L (surface expression); format: cell-based, human; conditions: All Cells, ligand N/A

Molecule: CC(=O)Nc1nnc(S(N)(=O)=O)s1 [Acetazolamide]
- CD40L MFI ([1]; CD4+ T cells with CA2 DD CD40L construct (OT-001990), Acetazolamide 0.01 μM): 112
- Percentage CD40L positive cells ([1]; CD4+ T cells with CA2 DD regulated CD40L construct, Acetazolamide 0.01 μM): 4.13%
- Percentage CD40L positive cells ([1]; CD4+ T cells with CA2 DD regulated CD40L construct, Acetazolamide 0.05 μM): 5.44%
- Percentage CD40L positive cells ([1]; CD4+ T cells with CA2 DD regulated CD40L construct, Acetazolamide 0.2 μM): 10.3%
- Percentage CD40L positive cells ([1]; CD4+ T cells with CA2 DD regulated CD40L construct, Acetazolamide 0.8 μM): 45.6%
- Percentage CD40L positive cells ([1]; CD4+ T cells with CA2 DD regulated CD40L construct, Acetazolamide 3.1 μM): 69.3%
- Percentage CD40L positive cells ([1]; CD4+ T cells with CA2 DD regulated CD40L construct, Acetazolamide 12.5 μM): 90.3%
- Percentage CD40L positive cells ([1]; CD4+ T cells with CA2 DD regulated CD40L construct, Acetazolamide 50 μM): 91.1%
- CD40L MFI ([1]; CD4+ T cells, Acetazolamide 0.2 μM): 185
- CD40L MFI ([1]; CD4+ T cells, Acetazolamide 0.8 μM): 481
- CD40L MFI ([1]; CD4+ T cells, Acetazolamide 3.1 μM): 840
- CD40L MFI ([1]; CD4+ T cells, Acetazolamide 12.5 μM): 2783
- CD40L MFI ([1]; CD4+ T cells, Acetazolamide 50 μM): 3728
- amount of Acetazolamide required to achieve stabilization of CD40L ([1]; CD4+ and CD8+ T cells): within the level of the ligand that can be achieved in humans
- CD40L MFI ([1]; CD8+ T cells with CA2 DD CD40L construct (OT-001990), Acetazolamide 0.01 μM): 105
- Percentage CD40L positive cells ([1]; CD8+ T cells with CA2 DD regulated CD40L construct, Acetazolamide 0.01 μM): 0.59%
- Percentage CD40L positive cells ([1]; CD8+ T cells with CA2 DD regulated CD40L construct, Acetazolamide 0.05 μM): 0.44%
- Percentage CD40L positive cells ([1]; CD8+ T cells with CA2 DD regulated CD40L construct, Acetazolamide 0.2 μM): 1.48%
- Percentage CD40L positive cells ([1]; CD8+ T cells with CA2 DD regulated CD40L construct, Acetazolamide 0.8 μM): 25.2%
- Percentage CD40L positive cells ([1]; CD8+ T cells with CA2 DD regulated CD40L construct, Acetazolamide 3.1 μM): 41.2%
- Percentage CD40L positive cells ([1]; CD8+ T cells with CA2 DD regulated CD40L construct, Acetazolamide 12.5 μM): 77.2%
- Percentage CD40L positive cells ([1]; CD8+ T cells with CA2 DD regulated CD40L construct, Acetazolamide 50 μM): 80.7%
- CD40L MFI ([1]; CD8+ T cells, Acetazolamide 0.05 μM): 104
- CD40L MFI ([1]; CD8+ T cells, Acetazolamide 0.2 μM): 136
- CD40L MFI ([1]; CD8+ T cells, Acetazolamide 0.8 μM): 307
- CD40L MFI ([1]; CD8+ T cells, Acetazolamide 3.1 μM): 380
- CD40L MFI ([1]; CD8+ T cells, Acetazolamide 12.5 μM): 1599
- CD40L MFI ([1]; CD8+ T cells, Acetazolamide 50 μM): 2184

B1: OT-001661: constitutive CD40L control; amino acid SEQ ID NO. 6067 and nucleic acid SEQ ID NO. 6068 (protein)
chain: MHMIETYNQTSPRSAATGLPISMKIFMYLLTVFLITQMIGSALFAVYLHRRLDKIEDERNLHEDFVFMKTIQRCNTGERSLSLLNCEEIKSQFEGFVKDIMLNKEETKKENSFEMQKGDQNPQIAAHVISEASSKTTSVLQWAEKGYYTMSNNLVTLENGKQLTVKRQGLYYIYAQVTFCSNREASSQAPFIASLCLKSPGRFERILLRAANTHSSAKPCGQQSIHLGGVFELQPGASVFVNVTDPSQVSHGTGFTSFGLLKL
notes: constitutive CD40L control; 6068
- IFNg [2]: 1579.21 pg/mL
- IL12 [2]: 58.88 pg/mL
- MFI ([3]; All Cells): 20451
- CD40L positive ([3]; CD4+ T cells): 98.7%
- MFI ([3]; CD4+ T cells): 24489
- CD40L positive ([3]; CD8+ T cells): 97.8%
- MFI ([3]; CD8+ T cells): 14352
- CD40L MFI ([4]; CD4+ T cells, 2 hours): 4042
- Percentage CD40L positive cells ([4]; CD4+ T cells, 2 hours): 72.8%
- CD40L MFI ([4]; CD4+ T cells, 4 hours): 4651
- Percentage CD40L positive cells ([4]; CD4+ T cells, 4 hours): 77%
- CD40L MFI ([4]; CD4+ T cells, 6 hours): 3156
- Percentage CD40L positive cells ([4]; CD4+ T cells, 6 hours): 67.2%
- CD40L MFI ([4]; CD4+ T cells, 24 hours): 9491
- Percentage CD40L positive cells ([4]; CD4+ T cells, 24 hours): 93.3%
- CD40L MFI ([4]; CD4+ T cells, 48 hours): 5639
- Percentage CD40L positive cells ([4]; CD4+ T cells, 48 hours): 88.5%
- CD40L MFI ([4]; CD8+ T cells, 2 hours): 2212
- Percentage CD40L positive cells ([4]; CD8+ T cells, 2 hours): 56.9%
- CD40L MFI ([4]; CD8+ T cells, 4 hours): 2994
- Percentage CD40L positive cells ([4]; CD8+ T cells, 4 hours): 63.2%
- CD40L MFI ([4]; CD8+ T cells, 6 hours): 1773
- Percentage CD40L positive cells ([4]; CD8+ T cells, 6 hours): 48.5%
- CD40L MFI ([4]; CD8+ T cells, 24 hours): 3563
- Percentage CD40L positive cells ([4]; CD8+ T cells, 24 hours): 71.2%
- CD40L MFI ([4]; CD8+ T cells, 48 hours): 2313
- Percentage CD40L positive cells ([4]; CD8+ T cells, 48 hours): 71.1%
- sCD40L (CD40L in HEK293T cells): 2900 pg/mL
- CD40L positive [5]: 98%
